According to the supplement of paper PMC10724198:
± gives the standard deviation of the averaged measurements.

Test system: Saccharomyces cerevisiae
Experiment: protein stability index of tFT-peptide fusion (C-terminal peptide) (PSI (0-1 scale)); higher = more stable (slower turnover)
Details: genetic background: wild type; temperature: 30 C
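Note: PSI is a weighted mean of sequencing reads over stability bins, variants kept only with over 10 reads, mCherry proximal and sfGFP distal, peptide attached via GGGS linker.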

Sequence	protein stability index
VDGLSGVRPRGL	0.69 ± 0.033
WNWSIITTENKP	0.7 ± 0.064
PPSAPPPLPPLL	0.7599 ± 0.0043
VLEKFFFGLAIL	0.569 ± 0.014
PVSPLPGPPPPP	0.7681 ± 0.0053
SLLRPPHASFSS	0.688 ± 0.044
LQRVPTDAVPDC	0.7074 ± 0.0044
TRRVPNSRTGTI	0.74 ± 0.072
IKREGRDNEEKK	0.703 ± 0.039
FSMHFARFFSCS	0.687 ± 0.061
SLPPHPAPPPAA	0.757 ± 0.014
GKGYVFRTLSHL	0.732 ± 0.082
KARMTDQLKSTS	0.672 ± 0.045
VCPVIGGGGVGV	0.695 ± 0.0077
QGLSHVVTCLFG	0.721 ± 0.07
RDRTVGLLEGTA	0.695 ± 0.085
WLYGEFGALVVD	0.685 ± 0.033
LRGPRTSTPLST	0.714 ± 0.036
TLEHRHPAIHPE	0.723 ± 0.046
PITLRRRSRPPT	0.692 ± 0.052
RKFGQRQKRECN	0.7085 ± 0.0066
PDSIVACGPVGR	0.702 ± 0.043
CPSLSALNHPLV	0.701 ± 0.021
GVAKRGREGCWS	0.569 ± 0.065
QIKPSLGLDKPS	0.683 ± 0.061

Sequence	protein stability index
LLLPFVSPPVYS	0.569 ± 0.031
WGTDVGAGCVAR	0.741 ± 0.027
VVHECIGVYGTV	0.634 ± 0.017
GYPPDPSPPRLL	0.724 ± 0.015
IRRKLINYIKKG	0.619 ± 0.066
GGPASSGLMDGY	0.698 ± 0.0062
PTLGDPSVLLLL	0.69 ± 0.022
PPLVHPCPSSHI	0.801 ± 0.088
PSSRSASSSSPA	0.705 ± 0.043
SGIYQTTSYIKI	0.7505 ± 0.0029
MFCRSPSYFPTV	0.739 ± 0.035
ASLLGSSPPPFI	0.696 ± 0.072
PPSPPALPRFLL	0.697 ± 0.025
FSKVLCSIVRGR	0.655 ± 0.015
VILGRGGSICKV	0.795 ± 0.046
HKGRVRACVFGV	0.666 ± 0.017
LFELVRTCDRCV	0.7 ± 0.03
PRRPLSTPTPLV	0.666 ± 0.049
GDITEVDISKHI	0.75 ± 0.051
VKYSIEVKRKKK	0.7181 ± 0.0039
KDEGIRENKPNH	0.668 ± 0.078
FLRLFLQQVEFL	0.7157 ± 0.0026
GFAVGDQFIVPL	0.687 ± 0.048
WFKALCPIFCKD	0.62 ± 0.015
PPPRPPSPLSLA	0.643 ± 0.1

Sequence	protein stability index
LPGFPGPSCICH	0.703 ± 0.21
PCPFSSPPPLTH	0.763 ± 0.053
RIPIGDSHIALK	0.692 ± 0.1
DHCRTQHLGLEM	0.725 ± 0.015
TGGESEPRDTIQ	0.701 ± 0.017
EGASLRWARLRI	0.679 ± 0.037
RSPPYRPPCLRP	0.722 ± 0.02
PPPPDPPAPSSP	0.749 ± 0.078
RLVLTHVSRCWQ	0.673 ± 0.065
GFPRSPALCSQP	0.689 ± 0.017
PLPFWPPPPRRP	0.674 ± 0.066
TFRADGYFFGRR	0.637 ± 0.042
DGPRPPRPSPVP	0.699 ± 0.04
VSGMRRRFGNRL	0.756 ± 0.11
GSGAQVERCRWE	0.719 ± 0.02
VVGGGDWRWGVW	0.7709 ± 0.0046
TCDSGSEDNVAA	0.7053 ± 0.0032
VSVGVPGWYGMI	0.6336 ± 0.0049
IRRHNVELSGYL	0.641 ± 0.022
MLSWKASWRQPV	0.664 ± 0.021
RGKRGRRGDEAG	0.712 ± 0.093
VRPYPGDDVSWR	0.693 ± 0.061
GGAAWRRGVGGV	0.66 ± 0.025
